Measured values as given in publication PMC3098285.

Biological target: T1, His-PhoP (Salmonella enterica serovar Typhimurium (strain SL1344?)) (UniProt E1WFA1)
T1 sequence: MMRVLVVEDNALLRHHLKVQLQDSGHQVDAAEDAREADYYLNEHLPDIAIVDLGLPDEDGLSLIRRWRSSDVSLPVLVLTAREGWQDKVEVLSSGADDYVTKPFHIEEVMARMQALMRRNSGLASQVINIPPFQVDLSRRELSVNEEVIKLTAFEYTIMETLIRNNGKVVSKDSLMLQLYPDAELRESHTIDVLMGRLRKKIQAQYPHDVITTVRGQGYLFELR
Test: EMSA
Conditions: 20 mM HEPES pH 7.6, 1 mM EDTA, 10 mM (NH4)2SO4, 5 mM DTT, 0.2% Tween 20, 30 mM KCl, 0.1 ug poly-L-lysine, 1 ug poly(dI-dC), 50 mM acetyl phosphate, 37 C …

Sequence: CGCTCACCTCTTCTGTATATAAGCTGTGAAATTGCGGTATGCTCAATCGGTAAAGTGAATTTACACATATATTCATTTTGCTCTGTTTCCTGGTAAGTGAAAGTAGCGAATATGATGTAATGTATAATT (double strand) [sseL promoter 128-bp fragment]
- binding: binds
